One substance from patent US20250051460A1 can be followed below.

This experiment concerns the target human VEGF-A (human) (UniProt P15692). In words: cell-based or functional assay.

Sequence of EYLEA (aflibercept) (Fc fusion) (chain): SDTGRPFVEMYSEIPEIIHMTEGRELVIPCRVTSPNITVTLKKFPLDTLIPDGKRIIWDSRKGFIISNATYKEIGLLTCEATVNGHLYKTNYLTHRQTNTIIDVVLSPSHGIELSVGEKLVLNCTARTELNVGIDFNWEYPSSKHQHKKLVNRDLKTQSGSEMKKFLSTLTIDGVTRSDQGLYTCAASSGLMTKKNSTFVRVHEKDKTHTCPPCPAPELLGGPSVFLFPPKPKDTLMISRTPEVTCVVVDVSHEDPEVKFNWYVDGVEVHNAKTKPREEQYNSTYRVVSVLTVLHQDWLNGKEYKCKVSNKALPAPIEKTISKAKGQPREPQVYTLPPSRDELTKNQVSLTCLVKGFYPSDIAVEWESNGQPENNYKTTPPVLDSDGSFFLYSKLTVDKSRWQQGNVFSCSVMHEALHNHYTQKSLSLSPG
Sequence of human VEGF-A (human) (P15692 other isoform, or with tags, fused parts or gaps limits assumed): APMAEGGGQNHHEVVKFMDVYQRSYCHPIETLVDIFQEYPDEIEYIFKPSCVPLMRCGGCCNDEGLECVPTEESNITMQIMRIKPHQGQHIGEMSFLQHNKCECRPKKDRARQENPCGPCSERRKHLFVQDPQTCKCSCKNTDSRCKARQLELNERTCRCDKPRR

For EYLEA (aflibercept) (Fc fusion), the ERK1/2 phosphorylation: Bottom plateau (AlphaLISA counts) (AlphaLISA counts) was found to be 21700; the ERK1/2 phosphorylation: Top plateau (AlphaLISA counts) (AlphaLISA counts) was 109000; the HRMEC proliferation, delta area under the curve vs. basal: Top plateau (arbitrary units) (arbitrary units) stood at 129; the HRMEC proliferation: Bottom plateau (arbitrary units) (arbitrary units) came to 13.3. Besides, the HRMEC proliferation: IC50 (pM) worked out at 171 pM, the HRMEC proliferation: LogIC50 was -9.77, the IC50 (p38 MAPK phosphorylation) amounted to 0.74 nM and the Src phosphorylation (Y419): Bottom plateau (AlphaLISA counts) (AlphaLISA counts) turned out to be 2210. Further, the Src phosphorylation (Y419): IC50 is 0.933 nM, the Src phosphorylation (Y419): LogIC50 was -9.37, the Src phosphorylation (Y419): Top plateau (AlphaLISA counts) (AlphaLISA counts) came to 3420 and the inhibition of VEGF-induced HRMEC proliferation is 16 nM. The p38-MAPK phosphorylation (T180/Y182): Bottom plateau (AlphaLISA counts) (AlphaLISA counts) was 8890, the p38-MAPK phosphorylation (T180/Y182): IC50 turned out to be 0.748 nM, the p38-MAPK phosphorylation (T180/Y182): LogIC50 was -9.13 and the p38-MAPK phosphorylation (T180/Y182): Top plateau (AlphaLISA counts) (AlphaLISA counts) came out at 23100.
